Measurements from publication doi:10.1101/2024.07.30.605797.

Target: C-terminal His6-tagged VanA-type VanS^127-384 (cytoplasmic domain of the histidine kinase VanS) (UniProt Q06240)
Assay: differential scanning fluorimetry

Row | Substance | Kd
1 | siamycin I (peptide) | 38 µM
2 | sviceucin (peptide) | 52 µM
